According to the Immune Epitope Database (IEDB):
pIC50, pKd: −log10 of the molar value. One block for each sequence: values may come before it.

How the values were obtained:
HLA-A*11:01 = assay: IEDB peptide-MHC binding, purified MHC/direct/fluorescence; filed as Kd, often an IC50 or EC50 that approximates it; ≥ and ≤ were set here for values at or beyond the usual limits of such assays
HLA-B*07:02 = assay: as above
HLA-B*08:02 = assay: as above; conditions: source organism: Orthomarburgvirus marburgense
HLA-A*69:01 = assay: as above
HLA-B*15:17 = assay: as above; conditions: source organism: Marburg virus - Musoke, Kenya, 1980
HLA-B*15:01 = assay: as above
HLA-B*73:01 = assay: as above; conditions: source organism: Marburg virus - Musoke, Kenya, 1980
HLA-B*15:09 = assay: as above
HLA-A*31:01 = assay: as above
HLA-B*27:05 = assay: as above
HLA-A*68:02 = assay: as above; conditions: source organism: Marburg virus - Musoke, Kenya, 1980
HLA-B*48:01 = assay: as above; conditions: source organism: Marburg virus - Musoke, Kenya, 1980
HLA-B*58:01 = assay: as above
HLA-A*01:01 = assay: as above
HLA-B*57:01 = assay: as above; conditions: source organism: Marburg virus - Musoke, Kenya, 1980
HLA-A*26:02 = assay: IEDB peptide-MHC binding, purified MHC/competitive/fluorescence; filed as Kd, often an IC50 or EC50 that approximates it; ≥ and ≤ were set here for values at or beyond the usual limits of such assays; conditions: source organism: Orthomarburgvirus marburgense
HLA-B*18:01 = assay: as above; conditions: source organism: Orthomarburgvirus marburgense
HLA-A*02:01 [1] = assay: as above
HLA-A*02:01 [2] = assay: IEDB peptide-MHC binding, cellular MHC/competitive/fluorescence; ≥ and ≤ were set here for values at or beyond the usual limits of such assays; conditions: source organism: Homo sapiens
HLA-B*15:42 = assay: IEDB peptide-MHC binding, purified MHC/competitive/fluorescence; filed as Kd, often an IC50 or EC50 that approximates it; ≥ and ≤ were set here for values at or beyond the usual limits of such assays
HLA-B*45:06 = assay: as above
HLA-A*32:15 = assay: as above
HLA-C*06:02 [3] = assay: as above
HLA-C*14:02 = assay: as above
HLA-B*83:01 = assay: as above
HLA-A*03:19 = assay: as above; conditions: source organism: Mycobacterium tuberculosis C
HLA-C*05:01 = assay: IEDB peptide-MHC binding, purified MHC/direct/fluorescence; filed as Kd, often an IC50 or EC50 that approximates it; ≥ and ≤ were set here for values at or beyond the usual limits of such assays; conditions: source organism: Yersinia pestis CO92
HLA-C*15:02 = assay: as above; conditions: source organism: Yersinia pestis CO92
HLA-C*06:02 [4] = assay: as above; conditions: source organism: Yersinia pestis CO92
HLA-C*07:02 = assay: as above; conditions: source organism: Yersinia pestis CO92
HLA-B*27:20 = assay: IEDB peptide-MHC binding, purified MHC/competitive/fluorescence; filed as Kd, often an IC50 or EC50 that approximates it; ≥ and ≤ were set here for values at or beyond the usual limits of such assays; conditions: source organism: Yersinia pestis CO92
HLA-B*51:01 = assay: as above; conditions: source organism: Yersinia pestis CO92
HLA-A*32:07 = assay: as above
HLA-B*44:02 = assay: IEDB peptide-MHC binding, purified MHC/direct/fluorescence; filed as Kd, often an IC50 or EC50 that approximates it; ≥ and ≤ were set here for values at or beyond the usual limits of such assays
HLA-A*24:03 = assay: as above; conditions: source organism: Escherichia coli O157:H7
HLA-A*03:01 = assay: as above
HLA-B*40:01 = assay: as above
HLA-A*26:01 = assay: as above; conditions: source organism: Escherichia coli O157:H7
HLA-B*08:01 = assay: as above; conditions: source organism: Escherichia coli O157:H7
HLA-A*30:01 = assay: as above; conditions: source organism: Escherichia coli O157:H7
HLA-A*02:01 [5] = assay: as above
HLA-B*27:04 = assay: IEDB peptide-MHC binding, cellular MHC/competitive/fluorescence; ≥ and ≤ were set here for values at or beyond the usual limits of such assays; conditions: source organism: Human herpesvirus 4 strain B95-8
HLA-C*08:02 = assay: IEDB peptide-MHC binding, purified MHC/direct/fluorescence; filed as Kd, often an IC50 or EC50 that approximates it; ≥ and ≤ were set here for values at or beyond the usual limits of such assays; conditions: source organism: Coxiella burnetii Dugway 5J108-111
HLA-A*24:02 = assay: as above; conditions: source organism: Coxiella burnetii
HLA-C*03:03 = assay: as above; conditions: source organism: Coxiella burnetii Dugway 5J108-111
HLA-A*68:23 = assay: IEDB peptide-MHC binding, purified MHC/competitive/fluorescence; filed as Kd, often an IC50 or EC50 that approximates it; ≥ and ≤ were set here for values at or beyond the usual limits of such assays; conditions: source organism: Coxiella burnetii Dugway 5J108-111
[6] = source organism: Marburg virus - Musoke, Kenya, 1980
[7] = source organism: Orthomarburgvirus marburgense
[8] = source organism: Mycobacterium tuberculosis C
[9] = source organism: Yersinia pestis CO92
[10] = source organism: Escherichia coli O157:H7
[11] = source organism: Coxiella burnetii
[12] = source organism: Coxiella burnetii Dugway 5J108-111

Sequence: NRWKSWFSY
- pKd (HLA-A*11:01; [6]): ≤ 4.70
- pKd (HLA-B*07:02; [6]): ≤ 4.70
- pKd (HLA-B*08:02): ≤ 4.70
- pKd (HLA-A*69:01; [6]): ≤ 4.70
- pKd (HLA-B*15:17): ≤ 4.70
- pKd (HLA-B*15:01; [6]): ≤ 4.70
- pKd (HLA-B*73:01): 8.01
- pKd (HLA-B*15:09; [7]): ≤ 4.70
- pKd (HLA-A*31:01; [6]): ≤ 4.70
- pKd (HLA-B*27:05; [6]): 7.06
- pKd (HLA-A*68:02): ≤ 4.70
- pKd (HLA-B*48:01): ≤ 4.70
- pKd (HLA-B*58:01; [6]): ≤ 4.70
- pKd (HLA-A*01:01; [6]): ≤ 4.70
- pKd (HLA-B*57:01): ≤ 4.70
- pKd (HLA-A*26:02): ≤ 4.70
- pKd (HLA-B*18:01): ≤ 4.70
- pKd (HLA-A*02:01 [1]; [7]): 5.60

- pIC50 (HLA-A*02:01 [2]): 5.59
Sequence: ALVVQVAEA

Sequence: MVRQMRAAL
- pKd (HLA-B*15:42; [8]): ≤ 5.30
- pKd (HLA-B*45:06; [8]): ≤ 5.30
- pKd (HLA-A*32:15; [8]): 6.45
- pKd (HLA-C*06:02 [3]; [8]): 6.28
- pKd (HLA-C*14:02; [8]): 7.47
- pKd (HLA-B*83:01; [8]): 7.00
- pKd (HLA-A*03:19): 6.23

Sequence: YQLEMYHPI
- pKd (HLA-C*05:01): ≤ 4.70
- pKd (HLA-C*15:02): ≤ 4.70
- pKd (HLA-C*06:02 [4]): ≤ 4.70
- pKd (HLA-C*07:02): 5.43
- pKd (HLA-B*27:20): 9.10
- pKd (HLA-B*15:42; [9]): 4.82
- pKd (HLA-B*45:06; [9]): 5.49
- pKd (HLA-B*51:01): ≤ 4.70
- pKd (HLA-A*32:07; [9]): 8.89
- pKd (HLA-C*14:02; [9]): 7.15
- pKd (HLA-B*83:01; [9]): ≤ 5.30
- pKd (HLA-A*02:01 [1]; [9]): 9.70

- pKd (HLA-B*44:02; [10]): ≤ 4.70
- pKd (HLA-A*11:01; [10]): 5.73
- pKd (HLA-B*07:02; [10]): ≤ 4.70
- pKd (HLA-A*69:01; [10]): ≤ 4.70
- pKd (HLA-A*24:03): ≤ 4.70
- pKd (HLA-A*03:01; [10]): 4.94
- pKd (HLA-B*40:01; [10]): ≤ 4.70
- pKd (HLA-B*15:01; [10]): ≤ 4.70
- pKd (HLA-A*26:01): ≤ 4.70
- pKd (HLA-A*31:01; [10]): 7.01
- pKd (HLA-B*27:05; [10]): ≤ 4.70
- pKd (HLA-B*08:01): ≤ 4.70
- pKd (HLA-A*30:01): 8.16
- pKd (HLA-B*58:01; [10]): ≤ 4.70
- pKd (HLA-A*02:01 [5]; [10]): ≤ 4.70
- pKd (HLA-A*01:01; [10]): ≤ 4.70
Sequence: VTRQIHNPR

Sequence: QRSYVSGVL
- pIC50 (HLA-B*27:04): 5.30

Sequence: MTFPVSLEY
- pKd (HLA-B*44:02; [11]): ≤ 4.70
- pKd (HLA-B*07:02; [11]): ≤ 4.70
- pKd (HLA-A*03:01; [11]): 7.32
- pKd (HLA-C*08:02): ≤ 4.70
- pKd (HLA-B*40:01; [11]): ≤ 4.70
- pKd (HLA-B*15:01; [11]): 7.36
- pKd (HLA-A*24:02): ≤ 4.70
- pKd (HLA-B*15:09; source organism: Coxiella burnetii Q321): ≤ 4.70
- pKd (HLA-B*27:05; [11]): ≤ 4.70
- pKd (HLA-B*58:01; [11]): 7.60
- pKd (HLA-C*03:03): 6.62
- pKd (HLA-A*02:01 [5]; [11]): ≤ 4.70
- pKd (HLA-A*01:01; [11]): 7.85
- pKd (HLA-B*15:42; [12]): ≤ 5.30
- pKd (HLA-B*45:06; [12]): ≤ 5.30
- pKd (HLA-A*32:07; [12]): 7.44
- pKd (HLA-A*32:15; [12]): 7.74
- pKd (HLA-A*68:23): ≥ 10.00
- pKd (HLA-C*06:02 [3]; [12]): 7.40
- pKd (HLA-C*14:02; [12]): 6.91
- pKd (HLA-B*83:01; [12]): 5.46
